# Test: yeast display, Sf9 membrane polyspecificity reagent, FACS + sequencing; frameworks hold sequencing errors
# In short: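 Galactose induction of a Saccharomyces cerevisiae BJ5465 synthetic nanobody display library ran 36–48 hours. The cells were then stained for 1 hour at 4 °C with 10% biotinylated, detergent-solubilized Sf9 membrane reagent, pulled down on streptavidin microbeads and FACS-sorted into low and high (top ~1%) gates on expression and reagent-binding fluorescence. Labels for polyreactivity follow the gate of origin.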
row,Sequence,polyreactivity (PSR sort gate)
1,QVQLEESGGGLVQAGGSLRLSCAASGRIFHVNAMGWYRPAPGKERELVAAISTSGGRTYYADSVKGRFTISRDNAKNTVYLQMNSLKPEDTAVYYCAKRWPLYVDPTRMDYWGQGTQVTVSS,high polyreactivity
2,QVQLEESGGGLVQAGGSLRLSCAASGRIFPRYAMGWYRQAPGKERELVATISSGGSTYYADSVKGRFTISRDNATNTVYLQMNSLTPEDTAVYYCAARKRPYSVINGMDYWGQGTQVTVSS,low polyreactivity
3,QVQLEESGGGLVQAGGSLRLSCAASGRIFRPYAMGWYRQAPGKERELVAAISFSGGSTYYADSVKGRFTISRDNAKNTVYLQMNSLKPEDTAVYYCNKDLYRYPGYDYWGQGTQVTVSS,high polyreactivity
4,QVQLEESGGGLVQAGGSLRLSCAASGRIFSNNVMGWYRQAPGKERELVATISTDGRTNYADSVKGRFTISRDNAKNTVYLQMNSLKPEDTAVYYCAATGVTILLSSKSDYWGQGTQVTVSS,low polyreactivity
5,QVQLEESGGGLVQAGGSLRLSCAASGRIFTGYAMGWYRQAPGKERELVAAIRGSGTSTYYADSVKGRFTISRDNAKNTVYLQMNSLKPEDTAVFYCAADWYTSRGWDWYDYWGQGTQVTVSS,high polyreactivity
6,QVQLEESGGGLVQAGGSLRLSCAASGRIFVRNGMGWYRQAPGKESELVPAITSAGSTNYADSVKGRFTISRDNAKNTVYLQMNSLIPEDTAVYYCATEPSGYYDSYYYFTYSDNYWGQGTQVTVSS,low polyreactivity
7,QVQLEESGGGLVQAGGSLRLSCAASGRIFWGYAMGWYRQAPGKERELVAGITYSGGSTYYADSVKGRFTISRDNAKNTVYLQMNSLKPEDTAVYYCAADATPGRGVDYWGQGTQVTVSS,high polyreactivity
8,QVQLEESGGGLVQAGGSLRLSCAASGRIFYFNTKGWYRQAPGKERELVAAISRSGTSTYYADSVKGRFTISRDFAKNTVYLQMNSLKPEDTAVYYCAARFGVKRGQYDYWGQGTQVTVSS,high polyreactivity
9,QVQLEESGGGLVQAGGSLRLSCAASGRIFYHYAMGWYRTAPGKERELVAAITSSGAGTYYADSVKGRFTISRDNAKNTVYLQMNSLKPEDTAVYYCAADASRRYRYWYDYWGQGTQVTVSS,high polyreactivity
10,QVQLEESGGGLVQAGGSLRLSCAASGRIFYPYAMGWYRQAPGKERELVAAISRSGGSTYYADSVKGRFTISRDNAKNTVYLQMNSLKPEDTAVYYCATGFYRAISHHGYDYWGQGTQVTVSS,low polyreactivity
11,QVQLEESGGGLVQAGGSLRLSCAASGRILSLYAMGRYRQAPGKERELVAAIRWSGSRTYYADSVKGRFTISRDNAKNTVYLQMNSLKPEDTAVYYCAAESHYPHKPGSDYWGQGTQVTVSS,high polyreactivity
12,QVQLEESGGGLVQAGGSLRLSCAASGRTFDIYAMGWYRQATGKERELVAAISSGGSTYYADSVKGRFTISRDNAKNTVFLQMNSLKPEDTAVYYCAVRWYDQVSRRGIGYYWGQGTQVTVSS,low polyreactivity
13,QVQLEESGGGLVQAGGSLRLSCAASGRTFSSYAMVWYRQAPGKERELVAAINSGGSTNYADSVKGRFTISRDNAKNTVYLQMNSLKPEDTAVYYCNAVTFWGLGYDYWGQGTQVTVSS,low polyreactivity
14,QVQLEESGGGLVQAGGSLRLSCAASGRTFVYYAMGWYRTATGKQRELVAAITSSGSRTYYADSVKGRFTFSRDNAKNTVYLQMNSLKPEDTAVYYCAADYVAHGDYRVLYDYWGQGTQVTVSS,low polyreactivity
15,QVQLEESGGGLVQAGGSLRLSCAASGRTITNYAMGWYRQAPGKERELVASINSGGSTSYADSVKGRFTISRDNAKNTVYLQMNSLKPEDTAVYYCNKRYLKFWGHQYGYWGQGTQVTVSS,high polyreactivity
16,QVQLEESGGGLVQAGGSLRLSCAASGRTSLAYAMGWYRQATGKEMELVAGITSGGNTNYADSVKGRFTISCDNAKNTVYLQMNSLKPEDTAVYYCNKKKRWQWYSDSVLDYLGFYSWGQGTQVTVSS,low polyreactivity
17,QVQLEESGGGLVQAGGSLRLSCAASGSIFAVYAMGWYIQAPGKERELVATISGRGGSTYYADSVKGRFTISRDNAKNTVYLQMNSLKPEDTAVYYCNARVLFRRERMDSWGQGTQVTVSS,high polyreactivity
18,QVQLEESGGGLVQAGGSLRLSCAASGSIFFYYAMGWYRQAPGKERELVAAIRSGTSTNYADSVKGRFTISRDNAKNTVYLQMNSLKPEDTAVYYCAARFPGGCYGMDYWGQGTQVTVSS,low polyreactivity
19,QVQLEESGGGLVQAGGSLRLSCAASGSIFGLYAMGWYRQAPGKERELVAAISARGGSTYYADSVKGRFTISRDNAKNTVYLQMNSLKPEDTAVNYCATRQVSAYSYIYDYWGQGTQVTVSS,high polyreactivity
20,QVQLEESGGGLVQAGGSLRLSCAASGSIFNYYAMGWYRQAPGKERELVAAITTSGGNTYYADSVKGRFTISRDNAKNTVYLQMNSLKPEDTAVYYCNVDARSSYDYWGQGTQVTVSS,low polyreactivity

# Reference: the nanobody polyreactivity screen of Harvey et al. (2022)
